Assay results taken from publication PMC4126377.

Target: α- and β-tropomyosin
Assay: GST pull-down
Settings: all curves start at 1 at 7.5 µg, read off a plot

GST-nebulin super repeat 9 (S9), wild type (from UniProt P20929-3) p.Glu2431Lys
response (relative intensity) (sub-panel NEB ex54 (super repeat 9), curve 54m, 15 µg α- and β-tropomyosin, parent: est. 1.25): 1.27
response (relative intensity) (sub-panel NEB ex54 (super repeat 9), curve 54m, 30 µg α- and β-tropomyosin, parent: est. 1.30): 1.36
response (relative intensity) (sub-panel NEB ex54 (super repeat 9), curve 54m, 60 µg α- and β-tropomyosin, parent: est. 1.30): 1.37

GST-nebulin super repeat 18 (S18), wild type (from UniProt P20929-3) p.Ser6366Ile
response (relative intensity) (sub-panel NEB ex122 (super repeat 18), curve 122m, 15 µg α- and β-tropomyosin, parent: est. 1.07): 1.08
response (relative intensity) (sub-panel NEB ex122 (super repeat 18), curve 122m, 30 µg α- and β-tropomyosin, parent: est. 1.18): 1.19
response (relative intensity) (sub-panel NEB ex122 (super repeat 18), curve 122m, 60 µg α- and β-tropomyosin, parent: est. 1.18): 1.2

GST-nebulin super repeat 22 (S22), wild type (from UniProt P20929-3) p.Thr7382Pro
response (relative intensity) (sub-panel NEB ex151 (super repeat 22), curve 151m, 15 µg α- and β-tropomyosin, parent: est. 1.28): 1.12
response (relative intensity) (sub-panel NEB ex151 (super repeat 22), curve 151m, 30 µg α- and β-tropomyosin, parent: est. 1.33): 1.17
response (relative intensity) (sub-panel NEB ex151 (super repeat 22), curve 151m, 60 µg α- and β-tropomyosin, parent: est. 1.34): 1.18
